Source: the nanobody polyreactivity screen of Harvey et al. (2022)

Test: yeast display, Sf9 membrane polyspecificity reagent, FACS + sequencing; frameworks hold sequencing errors
Method in brief: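 A nanobody's polyreactivity label depends on the gate it was sorted from. Yeast display cells were stained with 10% biotinylated, detergent-solubilized Sf9 membrane reagent for 1 hour at 4 °C, enriched on streptavidin microbeads and sorted by FACS. The low and high (top ~1%) gates were set on anti-HA fluorescence for expression and streptavidin fluorescence for reagent binding.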

Row | Sequence | polyreactivity (PSR sort gate)
1 | QVQLVESGGGLVQAGGSLRLSCAASGFIFADYAMGWYRQAPGKERELVAAISASGGITYYADSVKGRFTISRDNAKNTVYLQMNSLKPEDTAVYYCNAVTGKWNWRKYDYWGQGTQVTVSS | high polyreactivity
2 | QVQLVESGGGLVQAGGSLRLSCSASGSIFGRKMGWYRQAPVKERELVAAITWSGGRTYYADSVKGRFTISRDNAKNTVYLLMNCLKPEDTAVYYCNAVRRYTGYAFKDDYWGQGNQVTVSS | high polyreactivity
3 | QFQLVESGGGLVQAGGSLRLSCAASGGTFPYNAMGWYRQAPGKERELVAAISSSGTSTYYADSVKGRFTISRDNAKNTVYLQMNSLKPEDTAVYYCNDYFKRYDYWGQGTQVTVSS | high polyreactivity
4 | QVQLVESGGGLVQAGGSLRLSCAASGITFESNAMGWYRQAPGKEREFVAAISYDGGDTYYADSVKGRFTISRDNAKNTVYLQMNSLKPEDTAVYYCAAEPGWTMDYWGQGTQVTVSS | low polyreactivity
5 | QVQLVESGGVLVQAGGSLRLSCAASGSTFYRYAMGWYRQAPGKERELVAANTRGSRTYYADSVKGRFTISRDNAKNTVYLQMNSLKPEDTAVYYCAAYRDYGSYGSWGQGTQVTVSS | high polyreactivity
6 | QVQLVESGGGLVQAGGSLRLSCAASGIIFGYNVMGWYRQAPGKERELVAAISGSGSSTYYADSVKGRFTISRDNAKNTVYLQMNSLKPEDTAVYYCARQRYEYRTTYYYWGQGTQVTVSS | high polyreactivity
7 | QVELVESGGGLVQAGRSLRLSCAASGRILVSYAMGWYRQAPGKERELVAGITSGGDSTYYADSVKGRFTISRDNAKNTVYLQMNSLKPEDTAVYYCDADRDSYRGRKNVRERYTYWGQGTQVTVSS | high polyreactivity
8 | QVKRVESGGGIVQAGGSLRLSCAASGSTFHKNVMGWYRQEPGKERELVAAISIIGVRTYYADSVKGRFTISRDNAKNTVYLQINSLKQVDTAVYYCNTDTQNRRGSGRGFWGEGTQVTVSS | high polyreactivity
9 | QVQLVESGGGIVQAGGSLRLSCAASGSIFPDNAMGWYRQAPGKERELVAAIDKGTGSTNYADSVKGRFTISRDNAKNTVYLQMNSLKPEDTAVYYDYWGQGTQVSVSS | low polyreactivity
10 | QVQLVESGGGLVQAGGSLRLSCAACGSIVVGYAMGWYRQAPGKERELVAVITSDGSTNYADSVKGRFTISRDNAKHTVYLPMNSLKPEDTAVYYCAADPWLGTGRYDYWGQGTQVTVST | low polyreactivity
11 | QVHLVESGGGLVQAGGSLRLSCAASGSINYYAMGWYRQAPGKERELVAAITGSGGSTYYADSVKGRFTISRDNAKNTVYLQMNSLKPEDTAVYYCAARYGYIYGPYYYWGQGTQVTVSS | high polyreactivity
12 | QVQLVESAGGLVQARGSLRLSCAASGINFDWYTMGWYRKAPGKERELVAAISWRGGRTYYADSVKGRFTISRDNAKNTVYLQMNSLKPEDTAVYYCAAEAPVQPFYVFNTGIYELDYWGQGTQVTVSS | low polyreactivity
13 | QVQLVESGGGLVQAGGSLRLSCAASGRTFDGYTMGWYRQAPGKERELVAAIRRSGGSTYYADSVKGRFTISRDNAKNTVYLQINSLNPEDTAVYYCAASWRDIYRHYNVYPYDYWGQGTQVTVSS | low polyreactivity
14 | QVQLVESGGGLVQAGGSLRLSCAASGRIFGGYDMGWYRQAPGKERELVAAMTSDSSTTYADSVKGRFTISRDNAKNTVYLQMNSLKPEDTAVYYCAVQVNGPVFYRPYLDYDYWGQGTQVTVSS | low polyreactivity
15 | QVQLVESGGGLVQAGGSLRLSCAASGSTSLYNMGWYRQAPGKERELVAAIDSGSTNYADSVKGRFTISRDNAKNTVYLQMNSLKPEDTAVYYCAADGTNIGVYDRASYRDDYWGQGTQVTVSS | low polyreactivity
16 | QVQLVESGGGLVQAGGSLRLSCAASGSIFNYNAMGWYRQAPGKERELVAGITTSGGSTYYADSVKGRFTISRDNAKKTVYLQMNSLKPEDTAVYYCAAYDYISSTYFLDDYWGQGTQVTVSS | low polyreactivity
17 | QVQLVESGGGLVQAGGSLRLSCAASGFIFSSYAMGSYRQAPGKERELVAAISWSGGSTYYADSVKGRFTISRDNAKNTVYLQMKSLKPEDAAVYYCASVTRIFDYWGQGTQVTVSS | high polyreactivity
18 | QVQLVESGGGLVQAGGSLRLSCAASGRIFRHYAMGWYRQAPGKERELVAAISGGGGRTYYADSVKGRFTISRDNAKNTVYLQMNSLKPEDTAVYYCAKRPSYAYSRYRKGHDYWGQGTQVTVSS | high polyreactivity
19 | QVQLVESGGGLVQAGGSLRLSCAASGIIFDYYDMGWYRQAPGKERELVAAISAGGGSTYYADSVKGRFTISRDNAKNTVYLQMNSLKPEDTAVYYCAALYWRSTVGAYSTYEYDYWGQGTQVTVSS | high polyreactivity
20 | QVQLVESGGGLVQAGGSLRLSCAASGYLFSYYAMGWSRQAPGKERELVATIDWGGGSTYYADSVKGRFTISRDNAKNTVYLQMNSLKPEDTGVYYCSKDYYITKYGYRYDSWGQGTQVTVSS | low polyreactivity
21 | QVQLVESGGGLVQAGGSLRLSCAASVFTFPPYAMGWSRQAPGKERELVAAISSAGSTKYADSVKGRFTISRDNAKNTVYLQMNSLKPEDTAVYYCAARWARSYDYWGQGTQVTVSS | low polyreactivity
22 | QVQLVESGGGSLRLSCAASGLTFGGYTMGWYRQAPGKERELVAAISSSDSTNYADSVKGRFTISRDNAKNTVYLQMNSLKPEDTAVYYCAADSGQWSRYSSFGDEGDSWGQGTQVTVSS | low polyreactivity

Row | Sequence | polyreactivity (PSR sort gate)
23 | QVQLVESGGGLVQAGGSLRLSCAASGSTLAFYAMGWYRQATGKQRELVAAISRSGGRTYYSDSVKGRFTISRDNAKNTVYLQMNSLKPEDTAVYYCAAYWYYYWWYDYWGQGTQVTVSS | high polyreactivity
24 | QVQLVESGGGLVQAGGSLRLSCAASGSTFIRNAMGWYRQAPGKERELVAAITTDGSTDYADSVKGRFTISRDNAKNTVYLQMNSLKPEDTAVDYCNAEYRLDALSYDYLGQGTQVTVSS | low polyreactivity
25 | QVQLVESGGGLVQAGGSLRLSCAATGSIFSRYAMGWYRQAPGKERELVAAISWRGGGTYYADSVKGRFTISRDNAKNTVYLQMNSLKPVDTAVYYCAADDTPDDSDYWGQGTQVTVSS | low polyreactivity
26 | QVQLVESGGGLVQAGGSLRLSCAASGFIFGAYSMGWYRQAPGKERELVADITQNSGSTYYADSVKGRFTISRDNAKNTVYLQMNSLKPEDTAVYYCNAPPGTFQWQGHSDYWGQGTQVTVSS | low polyreactivity
27 | QVQLVESGAGLVQAGGSLRLSCDASGSIFSWYAMGWYRQARGKERELVAAITWSGGSTYYADSVKGRFTISRDNAKNTVYLEMNSLKPEDTAVYYCNTYSYYAFDWGLGTQVTVSS | high polyreactivity
28 | QVQLVESVGGLVQAGGSLRLSCAASGRIYVYVMGWYIQSPGKERELVAAITSGGSTYYADSVKGRFTISRDNAKNTDYLQMNSLKPEDTAVYYCAADVNGGYDYYYFVSIVYYWGQGTQVTVSS | low polyreactivity
29 | QVQLVESGGGLVQAGGTLRLSCAATGSTFPYNAMGWYRQAPGKERELVAAINSAGGTNYADSVKGRFTISRDNAKNTVYLQMNSLKPEDTAVYYCAADGSGYYDWYYYWGQGTQVTVSS | low polyreactivity
30 | QVQLVESGGGLVQAGGSLRLSCAASGITFVQYAMGWYRQAPGKERELVAAIRRGGSTSYADSVKGRFTISRDNAKNTVYLQMNSLKPEDTAVYYCARRYDWPITPLDVEYWGQGTQVTVSS | low polyreactivity
31 | QVQLVESGGGLVQAGGSLRLSCAASGSIFYANAMGWYRQAPGKERELVAAIDGGSTYYADSVKGRFTISRDNAKNTVYLQMNSLKPEDTAVYYCAADYFNYRGYTYLGDYWGQGTQVTVSS | low polyreactivity
32 | QVQLVESGGGLVQAGGSLRFSCAASGFIFVSNAVGWYRQAPGKERELVAAISRRGGRTYYADSVKGRFTISRDNEKNTVYVPMNSLKPEDTAVYDCAADQYRVSHQWYDYWGQGTQVTVSS | high polyreactivity
33 | QVQLVESGGGLVQAGGSLRLSCAASGSILAANAMGWYRQAPGKERELVAAIDWTGGDTYYADSVKGRFTISRDNAKNTVYLQMNSLKPEDTAVYYCAAEFVWPSIAYDVEYDYWGQGTQVTVSS | low polyreactivity
34 | QVQLVESGGGLVQAGGSLRLSCAASGFIFHVYAMGWYRQAPGKERELVAAISGTGGSTYYADSVKGRFTISRDTALNTVSLQMNSLKPEDTAVYYYKAERSGNGYCGQGTQVTVSS | high polyreactivity
35 | QVQLVESGGGLVQAGGSLRLSCAAYGRTFTWYSMGWYRQAPGKERELVAAISKSGGSTYYSDSVKGRFTISRDNAKITVYLQMNSLKPEDTAVYYCNAEFYGYFLGYGYWGQGTQVSVSS | low polyreactivity
36 | QVQLVESGGGLVQAGGTLGLSCAASGFIITQYAMGRYRQAPGKERELVAAISGNGGRTYYADSVKGRFTISRDNAKNTVYLQLNSLKPEDTAVYYCAVTRPGRRYPFGYDYWGQGTQVTVSS | high polyreactivity
37 | QVQLVESGGGLVQAGGSLRLSCAASGLIFDPNTMGWYRQAPGKERELVAAISSGGDTNYADSVKGRFTISRDNAKNTVYLQMNSLKPEDTAVYYCATDIRFHDPSEYEGVDFEFWGQGTQVTVSS | low polyreactivity
38 | QDQLVESGGGLVQAGGSLRLSCAASGRTFYRYAMGWSRQAPGKERELVAVISTDGSSTYYADSVKGRFTISRDNAKNTVYLQMNSLKPVDTAVYYCAARAPESYVSTRAHYYWGQGTQVTVSS | high polyreactivity
39 | QDQLVESGGGLVQAGGSLRLSCAASGITFQRYAMGGYRQAPGKERELVAVINFRGSNTFYADSVKGRFTISRDNAKNSVYLQMNSLIPEDTAVYYCAASYVIDIRGYGYWGQGTQVTVSS | low polyreactivity
40 | QVQLVESGGGLVQAGGSLRLSCAASGSIFYYYAMGWYRLAAGKERELVAAINSGGSTYADSVKGRFSISRDNAKNTVYLQMNSLIPEDSAVYYSATDIHSVDNNRDKHDYDYWGQGTQVTVSS | low polyreactivity
41 | QVQLGESGGGLVQAGGSLRLICAASGLTFSYNDMGWYRQAPGKERELVAGITSNGGSTYYADSVKGRFTITRDNAKNTVYLQMNSLNPEDTAVYYCAAEQYVGVKPFLSDSWGQGNQVTVSS | low polyreactivity
42 | QVQLVESGGGLVQAGGSLRLSCAASGIIFYLNAMGWYRQAPGKERELVAAISNGTSTNYADSVKGRFTISRDNAKNTVYLQMNSLKPEDTAVFYCAADDLRYNSRSSNYRGDYWGQGTQVTVSS | low polyreactivity
43 | QVQLVESGGGLVQAGGSLRLSCAASGSTFGSYGMGWYRQAPGKERELVAVITYSGDRTYYADSVKGRFTISRDNAKNTVYLQMNSLKPEDTAVYYCAADRSYRVSEYDYWGQGTQVTVSS | low polyreactivity
